Laboratory results taken from paper PMC10866667, “CTRP4/interleukin-6 receptor signaling ameliorates autoimmune encephalomyelitis by suppressing Th17 cell differentiation” (The Journal of Clinical Investigation, 2023).

T1: IL-6 receptor (IL-6R), in Jurkat cell membrane extract (UniProt P08887 20-468)
T1 construct: IL-6 receptor in membrane protein or membrane extract of Jurkat cells; also called IL-6Rα; source: Jurkat cells, membrane extract
T1 sequence (looked up): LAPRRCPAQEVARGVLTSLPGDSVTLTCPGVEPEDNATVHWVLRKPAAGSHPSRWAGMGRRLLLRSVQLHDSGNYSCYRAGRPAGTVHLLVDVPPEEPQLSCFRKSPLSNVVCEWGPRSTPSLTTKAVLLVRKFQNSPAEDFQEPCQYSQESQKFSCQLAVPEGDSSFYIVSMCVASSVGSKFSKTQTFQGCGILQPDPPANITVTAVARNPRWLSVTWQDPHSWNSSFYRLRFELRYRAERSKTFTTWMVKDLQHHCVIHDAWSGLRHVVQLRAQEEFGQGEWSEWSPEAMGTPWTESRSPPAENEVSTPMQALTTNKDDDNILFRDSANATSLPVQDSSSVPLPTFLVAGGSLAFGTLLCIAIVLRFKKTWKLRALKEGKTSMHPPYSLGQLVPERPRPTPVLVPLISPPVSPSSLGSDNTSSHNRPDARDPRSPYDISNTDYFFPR


What was measured:
[1] = molecular target: T1, IL-6 receptor (IL-6R), in Jurkat cell …; experiment: radioligand binding; competition: Jurkat cell membrane extract and 125I-CTRP4 with different concentrations of unlabeled CTRP4, OSM or IL-6; 24 hours at 4°C, 25% PEG, γ counter; details: one partner purified
[2] = molecular target: T1, IL-6 receptor (IL-6R), in Jurkat cell …; experiment: radioligand binding; saturation: equivalent quantities of Jurkat cell membrane extract with 2-fold serial dilutions of 125I-CTRP4; nonspecific binding with 500-fold excess of CTRP4; 24 hours at 4°C, 25% PEG, γ counter; details: one partner purified

Sequence of 125I-CTRP4 (Q9BXJ3 17-329): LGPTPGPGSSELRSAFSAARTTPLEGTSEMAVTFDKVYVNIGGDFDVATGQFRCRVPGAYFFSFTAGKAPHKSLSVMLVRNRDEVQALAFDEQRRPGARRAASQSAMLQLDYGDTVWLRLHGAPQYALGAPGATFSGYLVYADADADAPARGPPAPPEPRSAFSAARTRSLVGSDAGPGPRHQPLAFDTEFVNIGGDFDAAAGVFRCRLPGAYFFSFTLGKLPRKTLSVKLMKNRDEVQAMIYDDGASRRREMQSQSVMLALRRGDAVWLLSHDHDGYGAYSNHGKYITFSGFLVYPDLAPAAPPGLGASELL

Binder | IC50 [1] [nM] | Kd [2] [nM]
rhCTRP4 protein (unlabeled) (natural protein, rhCTRP4 protein purified from CTRP4-CHO cells; also called unlabeled CTRP4; recombinant CTRP4 protein) not shown | 77.2 | –
125I-CTRP4 (natural protein, 125I label (chloramine T), rhCTRP4 protein purified from CTRP4-CHO cells; also called radio-iodinated CTRP4; 125I-labeled CTRP4) not shown | – | 3.94
